Source: US20030212001A1 (THERATECHNOLOGIES, published 2003)

Target: R-14 protein (as present in the eye of newborn pigs)
Assay: cell-based or functional assay

Row | IC50, dose response on basal intraocular pressure (IOP) of piglet [nM] | Binder
1 | 86.4 | HIICSPLR [peptide 1402]
2 | 342 | IFDSTECW [peptide 1405]
